# According to patent US20200239579A1 (Genmab, published 2020):
# B1: bsIgG1-huCD3-H1L1-FEAL×511-LC33S-FEAR (bispecific antibody)
# heavy 1: not shown
# VL: not shown
# heavy 2: QVQLVQSGSELKKPGASVMVSCKASGYTFTSYVMNWVRQAPGQGLEWMGWINSYTGNPTSAQGFTGRFVFSFDTSVNTAYLQISSLKAEDTAVYYCARGYCTSTSCYLDYWGQGTLVTVSSASTKGPSVFPLAPSSKSTSGGTAALGCLVKDYFPEPVTVSWNSGALTSGVHTFPAVLQSSGLYSLSSVVTVPSSSLGTQTYICNVNHKPSNTKVDKRVEPKSCDKTHTCPPCPAPEFEGGPSVFLFPPKPKDTLMISRTPEVTCVVVAVSHEDPEVKFNWYVDGVEVHNAKTKPREEQYNSTYRVVSVLTVLHQDWLNGKEYKCKVSNKALPAPIEKTISKAKGQPREPQVYTLPPSREEMTKNQVSLTCLVKGFYPSDIAVEWESNGQPENNYKTTPPVLDSDGSFFLYSRLTVDKSRWQQGNVFSCSVMHEALHNHYTQKSLSLSPGK
# light: SYELTQPPSVSVSPGHTARITCSGDALPKKYASWFQQKSGQAPVLVIYEDSKRPSGIPERFSGSTSGTMATLTISGAQVEDETDYYCYSADTSGTHRVFGGGTKLTVLGQPKAAPSVTLFPPSSEELQANKATLVCLISDFYPGAVTVAWKADSSPVKAGVETTTPSKQSNNKYAASSYLSLTPEQWKSHRSYSCQVTHEGSTVEKTVAPTECS
# B2: IgG1-421-LC91S-FEAR (antibody, V domains shown)
# VH: EVQLVESGGGLVQPGRSLRLSCAASGFTFDDYAMHWVRQGPGKGLEWVSGIRWNSGSMHYADSVKGRFTISRDNAKSSLYLQMNSLRAEDTALYYCARAPWYSGAWHPDYWGQGTLVTVSS
# VL: QSALTQPRSVSGSPGQSVTISCTGTSSDVGTYNYVSWYQQHPGKAPKLMIYDVIKRPSGVPDRFSGSKSGNTASLTLSGLQAEDEADYYCSSYAGTYTLLFGGGTKLTVL
# B3: IgG1-476-N101Q-LC33S-FEAR (antibody, V domains shown)
# VH: EVQMLESGGGLVQPGGSLRLSCAASGFTFRSYAMSWVRQAPGKGLEWVSGIGDSGGSTYHADSVKGRFTISRDNSKNTLYLQMNSLRAEDTAVYYCAKLGQSSGWYDHYYYYGMDVWGQGTTVTVSS
# VL: SYELTQPPSVSVSPGQTASITCSGDKLGNKYVSWFQQKPGQSPVLVIYRDSERPSGIPERFSGSNSGNTATLTISGTQAVDEADFYCQAWDSSTVVFGGGTKLTVL
# B4: IgG1-321-FEAR (antibody, V domains shown)
# VH: EVQLVESGGGLVQPGGSLRLSCAASGFTFSSYWMSWVRQAPGKGLEWVANIKQDGNEKYYVDSVKGRFTISRDNAKNSLYVQMNSLRAEDTAVYYCARDLYYGSGTYPPFDYWGQGTLVTVSS
# VL: DIQMTQSPSTLSASVGDRVTITCRASQSISSWLAWYLQKPGKAPKLLIYKASSLESGVPSRFSGSGSGTEFTLTISSLQPDDFATYYCQQYHSSSYTFGQGTKLEIK
# B5: IgG1-632-FEAR (antibody, V domains shown)
# VH: QVQLVESGGGLVKPGGSLRLSCAASGFTFSDYYMSWIRQAPGKGLEWVSYIGSSSNTIYYADSVKGRFTISRDNAKNSLYLQMNSLRAEDTAVYSCARDRVKYGSPGSLFDYWGQGTLVTVSS
# VL: SYELTQPPSVSVSPGQTARITCSGDALPKKYAFWYQQKSGQAPVLVIYEDSKRPSGIPERFSGSSSGTMATLTISGAQVEDEADYYCYSTASSGDHRVFGGGTKLTVL
# Legend:
# [1] = target: T1, human PD-L1 (full length, on cells) (human, UniProt Q9NZQ7 19-290); experiment: flow cytometry on MDA-MB-231 cells, PE anti-human IgG secondary, MFI (PE)
# T1 construct: The entry holds the signal peptide; also called CD274; B7H1
# Experimental: (§1) Cells (3-5×10⁴ cells/well) were incubated in polystyrene 96-well round-bottom plates (Greiner bio-one, cat. no. 650101) with serial dilutions of antibodies (range 0.0001 to 10 μg/mL in 5-fold dilution steps) in 50 μL PBS/0.1% BSA/0.02% azide (staining buffer) at 4° C. for 30 min.
# (§2) After washing twice in staining buffer, cells were incubated in 50 μL secondary antibody at 4° C. for 30 min. As a secondary antibody, R-Phycoerythrin (PE)-conjugated goat-anti-human IgG F(ab′)₂ (Cat. no. 109-116-098, Jackson ImmunoResearch Laboratories, Inc., West Grove, Pa.) diluted 1:500 in staining buffer, was used for all experiments. Next, cells were washed twice in staining buffer, re-suspended in 20 μL staining buffer and analyzed on an iQue screener (Intellicyt Corporation, USA). Binding curves were analyzed using non-linear regression (sigmoidal dose-response with variable slope) using GraphPad Prism V75.04 software (GraphPad Software, San Diego, Calif., USA).
# [2] = target: T2, cynomolgus monkey PD-L1 (full length, on CHO cells) (cynomolgus monkey (Macaca fascicularis), UniProt G7PSE7 19-290); experiment: flow cytometry on CHO cells transfected with cynomolgus PD-L1, PE anti-human IgG secondary, MFI (PE)
# T2 construct: whole, on cells; also called PDL1 Mf; cynomolgus PD-L1
# Experimental: as §1, §2
# Binding to CHO cells expressing cynomolgus PD-L1 was determined by flow cytometry using a method as described above.
# [3] = target: T3, human PD-L2 (full length, on CHO cells) (human, UniProt Q9BQ51 20-273); experiment: flow cytometry on CHO cells expressing human PD-L2
# T3 construct: whole, on cells; also called CHO-PD-L2 cells
# T3 sequence (looked up): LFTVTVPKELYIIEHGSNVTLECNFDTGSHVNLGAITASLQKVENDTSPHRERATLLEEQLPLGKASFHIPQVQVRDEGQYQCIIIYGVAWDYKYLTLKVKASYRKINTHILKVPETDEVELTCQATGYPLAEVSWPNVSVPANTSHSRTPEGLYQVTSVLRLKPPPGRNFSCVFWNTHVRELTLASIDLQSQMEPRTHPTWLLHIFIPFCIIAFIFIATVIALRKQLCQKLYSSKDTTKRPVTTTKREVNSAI
# Experimental: as §1, §2
# A PE-conjugated PD-L2 specific antibody (Mylteni, clone MIH18; cat. no. 130-098-651) was used as positive control.
# PDLoneECDHisCtag [4] = target: T4, PDLoneECDHisCtag (human, UniProt Q9NZQ7 19-238); experiment: BLI cross-block, second antibody on PDLoneECDHisCtag held by immobilised 511-LC33S; plain = non-blocking
# T4 construct: Expressed in HEK-293F cells; theoretical molecular weight 29 kDa; also called recombinant human PD-L1 ECD; human PD-L1 (BLI); not shown: C-terminal His-tag; C-tag
# Experimental: (§3) Antibody cross-block testing was performed using biolayer interferometry (BLI) on an Octet HTX instrument (ForteBio). Antibodies (20 μg/ml in 10 mM sodium acetate buffer pH 6.0 (ForteBio)) were immobilized on Amine-Reactive 2nd Generation (AR2G) biosensors (ForteBio) according to the instructions of the manufacturer. After a baseline (50 s) in Sample Diluent (ForteBio), biosensors containing immobilized antibodies were loaded for 500 s with PDLoneECDHisCtag (100 nM or 2.7 μg/ml), after which the association response of a second antibody (10 μg/ml) was followed for 500 s. Biosensors were regenerated by using 3 times 5 s alternating exposures to 10 mM glycine pH 2.5 and Sample Diluent. The experiment was repeated with a new set of second antibodies starting from the baseline step. Each biosensor was used 6 times. The experiment was performed at 30° C. using a shaker speed of 1000 rpm. Data was analyzed using Data Analysis Software v9.0.0.12 (ForteBio). The Y-axis was aligned to the association step and Savitzky-Golay filtering was applied. The average buffer response was subtracted from the association response of the second antibody in order to correct for the dissociation of PDLoneECDHisCtag from the immobilized antibody. The corrected association responses were plotted in a matrix format.
# PDLoneECDHisCtag [5] = target: T4, PDLoneECDHisCtag; experiment: BLI cross-block, second antibody on PDLoneECDHisCtag held by immobilised MEDI; bold = blocking
# Experimental: as §3
# PDLoneECDHisCtag [6] = target: T4, PDLoneECDHisCtag; experiment: BLI cross-block, second antibody on PDLoneECDHisCtag held by immobilised 421-LC91S; bold = blocking
# Experimental: as §3
# PDLoneECDHisCtag [7] = target: T4, PDLoneECDHisCtag; experiment: BLI cross-block, second antibody on PDLoneECDHisCtag held by immobilised 338; bold = blocking
# Experimental: as §3
# PDLoneECDHisCtag [8] = target: T4, PDLoneECDHisCtag; experiment: BLI cross-block, second antibody on PDLoneECDHisCtag held by immobilised 516; bold = blocking
# Experimental: as §3
# PDLoneECDHisCtag [9] = target: T4, PDLoneECDHisCtag; experiment: BLI cross-block, second antibody on PDLoneECDHisCtag held by immobilised 632; plain = non-blocking
# Experimental: as §3
# PDLoneECDHisCtag [10] = target: T4, PDLoneECDHisCtag; experiment: BLI cross-block, second antibody on PDLoneECDHisCtag held by immobilised 321; bold = blocking
# Experimental: as §3
# PDLoneECDHisCtag [11] = target: T4, PDLoneECDHisCtag; experiment: BLI cross-block, second antibody on PDLoneECDHisCtag held by immobilised 547; bold = blocking
# Experimental: as §3
# PDLoneECDHisCtag [12] = target: T4, PDLoneECDHisCtag; experiment: BLI cross-block, second antibody on PDLoneECDHisCtag held by immobilised MPDL; bold = blocking
# Experimental: as §3
# PDLoneECDHisCtag [13] = target: T4, PDLoneECDHisCtag; experiment: BLI cross-block, second antibody on PDLoneECDHisCtag held by immobilised 476-N101Q-LC33S; plain = non-blocking
# Experimental: as §3
# PDLoneECDHisCtag [14] = target: T4, PDLoneECDHisCtag; experiment: BLI cross-block, second antibody on PDLoneECDHisCtag held by immobilised 632; bold = blocking
# Experimental: as §3
# PDLoneECDHisCtag [15] = target: T4, PDLoneECDHisCtag; experiment: BLI cross-block, second antibody on PDLoneECDHisCtag held by immobilised 476-N101Q-LC33S; bold = blocking
# Experimental: as §3
# PDLoneECDHisCtag [16] = target: T4, PDLoneECDHisCtag; experiment: BLI cross-block, second antibody on PDLoneECDHisCtag held by immobilised 421-LC91S; plain = non-blocking
# Experimental: as §3
# PDLoneECDHisCtag [17] = target: T4, PDLoneECDHisCtag; experiment: BLI cross-block, second antibody on PDLoneECDHisCtag held by immobilised 547; plain = non-blocking
# Experimental: as §3
# PDLoneECDHisCtag [18] = target: T4, PDLoneECDHisCtag; experiment: BLI cross-block, second antibody on PDLoneECDHisCtag held by immobilised 516; plain = non-blocking
# Experimental: as §3
# PDLoneECDHisCtag [19] = target: T4, PDLoneECDHisCtag; experiment: BLI cross-block, second antibody on PDLoneECDHisCtag held by immobilised 511-LC33S; bold = blocking
# Experimental: as §3
# T4 sequence (Q9NZQ7 19-238, form in doubt): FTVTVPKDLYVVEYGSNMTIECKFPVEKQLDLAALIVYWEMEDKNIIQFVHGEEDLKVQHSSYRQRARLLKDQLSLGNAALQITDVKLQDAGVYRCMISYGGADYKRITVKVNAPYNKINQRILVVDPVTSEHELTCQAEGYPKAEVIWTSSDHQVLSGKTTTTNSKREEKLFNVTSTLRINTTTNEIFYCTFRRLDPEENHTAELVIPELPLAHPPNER
# T1 sequence (Q9NZQ7 19-290 limits assumed): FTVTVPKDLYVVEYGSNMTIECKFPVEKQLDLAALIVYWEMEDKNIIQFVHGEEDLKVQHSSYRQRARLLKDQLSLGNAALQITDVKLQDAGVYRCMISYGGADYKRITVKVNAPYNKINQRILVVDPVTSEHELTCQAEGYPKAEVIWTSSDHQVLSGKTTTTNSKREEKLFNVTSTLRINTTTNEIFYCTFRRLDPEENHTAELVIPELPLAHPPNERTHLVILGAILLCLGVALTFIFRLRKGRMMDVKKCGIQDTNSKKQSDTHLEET
# T2 sequence (G7PSE7 entry or part of it): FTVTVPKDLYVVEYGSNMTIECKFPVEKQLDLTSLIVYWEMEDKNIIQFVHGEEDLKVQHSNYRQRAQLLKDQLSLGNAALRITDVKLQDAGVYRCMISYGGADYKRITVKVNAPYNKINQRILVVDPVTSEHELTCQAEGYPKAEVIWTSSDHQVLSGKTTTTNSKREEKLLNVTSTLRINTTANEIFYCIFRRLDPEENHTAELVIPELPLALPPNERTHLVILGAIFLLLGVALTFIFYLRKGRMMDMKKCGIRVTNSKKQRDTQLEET
Binder,binding result [1],EC50 (read off the curve) [2],binding result [3],association response of the second antibody (PDLoneECDHisCtag [4]),association response of the second antibody (PDLoneECDHisCtag [5]),association response of the second antibody (PDLoneECDHisCtag [6]),association response of the second antibody (PDLoneECDHisCtag [7]),association response of the second antibody (PDLoneECDHisCtag [8]),association response of the second antibody (PDLoneECDHisCtag [9]),association response of the second antibody (PDLoneECDHisCtag [10]),association response of the second antibody (PDLoneECDHisCtag [11]),association response of the second antibody (PDLoneECDHisCtag [12]),association response of the second antibody (PDLoneECDHisCtag [13]),association response of the second antibody (PDLoneECDHisCtag [14]),association response of the second antibody (PDLoneECDHisCtag [15]),association response of the second antibody (PDLoneECDHisCtag [16]),association response of the second antibody (PDLoneECDHisCtag [17]),association response of the second antibody (PDLoneECDHisCtag [18]),association response of the second antibody (PDLoneECDHisCtag [19])
B1,binds,~0.3 µg/mL,no binding,–,–,–,–,–,–,–,–,–,–,–,–,–,–,–,–
B2,–,–,–,0.6 nm,0 nm,0 nm,0 nm,-0.1 nm,0.6 nm,0 nm,0 nm,0 nm,0.8 nm,–,–,–,–,–,–
B3,–,–,–,–,–,–,–,–,–,–,–,–,–,0 nm,0 nm,0.4 nm,0.8 nm,1.2 nm,0 nm
B4,–,–,–,–,0 nm,-0.1 nm,0 nm,–,0.6 nm,0 nm,0 nm,0 nm,–,–,–,–,–,1.1 nm,0 nm
B5,–,–,–,–,–,–,–,–,–,–,–,–,–,0 nm,0 nm,0.2 nm,0.7 nm,1.1 nm,0 nm
